Article PMC5458211, “Mitochondrial VDAC1-based peptides: Attacking oncogenic properties in glioblastoma” (Oncotarget, 2017)
Non-standard residues stand in square brackets, D forms with d. No end group written: not given here.

Molecular target: T1, Hexokinase II (HK-II), purified (UniProt P52789 1-917, fluorescently labeled using the NanoTemper protein-labeling Kit BLUE)
T1 construct: hexokinase II (HK-II)
T1 sequence (looked up): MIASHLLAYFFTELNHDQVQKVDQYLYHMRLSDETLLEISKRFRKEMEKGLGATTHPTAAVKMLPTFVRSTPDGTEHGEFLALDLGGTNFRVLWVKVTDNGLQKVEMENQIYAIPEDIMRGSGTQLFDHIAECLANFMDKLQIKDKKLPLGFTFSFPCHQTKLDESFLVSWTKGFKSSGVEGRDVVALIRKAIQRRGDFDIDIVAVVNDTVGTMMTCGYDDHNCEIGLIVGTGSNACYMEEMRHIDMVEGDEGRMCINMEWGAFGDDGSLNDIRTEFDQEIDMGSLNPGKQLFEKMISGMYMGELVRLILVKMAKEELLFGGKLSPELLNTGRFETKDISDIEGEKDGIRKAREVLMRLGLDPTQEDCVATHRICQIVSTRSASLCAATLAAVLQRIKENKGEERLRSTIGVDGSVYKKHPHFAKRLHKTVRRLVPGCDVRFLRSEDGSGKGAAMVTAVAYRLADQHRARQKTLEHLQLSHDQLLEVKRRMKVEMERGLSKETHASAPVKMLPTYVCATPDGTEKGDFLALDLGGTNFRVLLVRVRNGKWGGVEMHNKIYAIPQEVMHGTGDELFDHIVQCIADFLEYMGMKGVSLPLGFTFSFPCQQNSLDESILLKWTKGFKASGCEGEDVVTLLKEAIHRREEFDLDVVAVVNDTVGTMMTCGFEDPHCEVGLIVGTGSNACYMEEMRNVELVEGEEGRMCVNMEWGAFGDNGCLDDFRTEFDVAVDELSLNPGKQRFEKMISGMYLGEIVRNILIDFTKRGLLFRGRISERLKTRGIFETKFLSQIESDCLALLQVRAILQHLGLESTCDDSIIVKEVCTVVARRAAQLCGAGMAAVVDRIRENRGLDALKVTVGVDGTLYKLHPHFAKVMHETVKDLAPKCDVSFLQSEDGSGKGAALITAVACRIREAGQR
Assay: MST; HK-II (100 nM), fluorescently labelled (NanoTemper Kit BLUE), incubated with Tf-D-LP4 (1-100 μM) for 20 min; MST-grade glass capillaries, Monolith-NT115
Details: both partners purified

B1: Tf-D-LP4 (peptide)
peptide: HAIYPRHSWTWE[dK][dK][dL][dE][dT][dA][dV][dN][dL][dA][dW][dT][dA]G[dN][dS][dN]KWTWK
notes: L-amino acids; amino acids added to form a loop-shaped tryptophan zipper (N-terminal half); amino acids added to form a loop-shaped tryptophan zipper (C-terminal half); 34 residues in all; the VDAC1-derived stretch is made of D-amino acids, the rest of L-amino acids; also called VDAC1-based peptide; Tf-D-LP4 peptide; source: synthetic peptide (GL Biochem, Shanghai, >95% purity), dissolved in DMSO
  Kd: 16.6 µM
